From patent US20250340631A1 (HARBOUR BIOMED SHANGHAI, published 2025)

Assays:
human CLDN18.1 = molecular target: T1, human CLDN18.1 (human, UniProt P56856 1-261); assay: FACS on HEK293/hCLDN18.1 cells
T1 construct: whole, on cells; also called hCLDN18.1
Procedure: (§1) Antibodies were assayed for binding affinity by FACS. Test cells include HEK293/hCLDN18.2, HEK293/hCLDN18.1, NUGC4_D8 and Jurkat cells. […] The cell density was adjusted to 10⁶ cells/mL, and 50 μL of the cell suspension was added to each well of a 96-well plate. Antibodies were diluted to different concentrations with FACS buffer, and 50 μL of the antibody dilution was added to each well of the 96-well plate. After 2 h of incubation at 4° C., the plate was washed twice with FACS buffer. […] After 1 h of incubation at 4° C., the plate was washed twice with FACS buffer. The cells were resuspended in fixative solution, and then the fluorescence of the cells was monitored using an FACS instrument (ACEA NovoCyte).

[1] = molecular target: T2, human CD3 on Jurkat cells (human, UniProt P07766 23-207); assay: FACS on Jurkat cells
T2 construct: whole, on cells; on cells it stands in the whole CD3/TCR complex; also called CD3-expressing cells
Procedure: as §1

human CLDN18.2 [2] = molecular target: T3, human CLDN18.2 (human); assay: FACS on NUGC4_D8 cells
T3 construct: the HEK293 line was made with a GenScript plasmid; also called hCLDN18.2

human CLDN18.2 [3] = molecular target: T3, human CLDN18.2; assay: cell-based or functional assay
human CLDN18.2 [4] = molecular target: T3, human CLDN18.2; assay: FACS on HEK293/hCLDN18.2 cells
[5] = molecular target: T2, human CD3 on Jurkat cells; assay: FACS on Jurkat cells (CD3)
Procedure: as §1

[6] = molecular target: CLDN18.2 of SNU620 cells (methionine to leucine at amino acid 149) (human, UniProt P56856-2 1-261); assay: cell-based or functional assay
[7] = molecular target: T4, Biotinylated human CD3E&D (human, UniProt P07766 23-126; P04234 22-105, biotin label); assay: BLI (Octet), biotinylated CD3 on SA sensor, 1:1 global fit;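 also: antibodies applied as analyte in 2-fold serial dilutions, with a 180 s association phase followed by a 300 s dissociation phase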
T4 construct: also called CDD-H82W6
Procedure: (§2) The binding kinetics between proteins and antibodies was analyzed by the Biolayer Interferometry (BLI) technique using an Octet Red 96e (Fortebio) system. Human CD3E (Acro, CDE-H5223), cynomolgus CD3E (Acro, CDE-C5226) and murine CD3E (Acro, CDE-M5256) were mixed with biotin (Thermo Scientific, A39257) in a molar ratio of 1:3. The mixture was incubated at 4° C. overnight, and then excess biotin was removed to obtain biotinylated CD3E. The rotation speed was set at 1000 rpm for the system. […] After being equilibrated in the buffer for 120 s, the SA sensor with captured CD3 was allowed to bind to 2-fold serially diluted antibodies. […] Finally, the SA sensor was immersed in a 10 mM glycine-hydrochloric acid solution at pH 1.5 for regeneration to elute the antibodies bound to the sensor. […] For the interactions of fast binding and fast dissociation, the “steady state” method was selected to fit the data to obtain KD(M) values.

[8] = molecular target: T5, Human CD3E (Acro, CDE-H5223) (human, UniProt P07766 23-126, biotinylated (mixed with biotin 1:3)); assay: as above
T5 construct: also called Human CD3Ec
Procedure: as §2

[9] = molecular target: T6, Biotinylated murine CD3E&D (murine, UniProt P22646 22-108; P04235 22-105, biotin label); assay: BLI (Octet), biotinylated CD3 on SA sensor
T6 construct: also called CDD-M82W5
T6 sequence (P22646 22-108, chain 1 of 2): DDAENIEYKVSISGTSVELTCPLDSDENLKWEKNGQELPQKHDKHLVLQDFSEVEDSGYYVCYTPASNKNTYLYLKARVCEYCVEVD
T6 sequence (P04235 22-105, chain 2 of 2): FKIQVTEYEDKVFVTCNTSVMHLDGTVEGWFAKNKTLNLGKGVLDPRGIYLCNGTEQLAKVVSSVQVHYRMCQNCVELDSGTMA
Procedure: as §2

T4 sequence (P07766 23-126, chain 1 of 2): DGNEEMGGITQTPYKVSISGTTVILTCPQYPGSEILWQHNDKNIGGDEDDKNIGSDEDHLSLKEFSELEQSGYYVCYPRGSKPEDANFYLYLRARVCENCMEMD
T4 sequence (P04234 22-105, chain 2 of 2): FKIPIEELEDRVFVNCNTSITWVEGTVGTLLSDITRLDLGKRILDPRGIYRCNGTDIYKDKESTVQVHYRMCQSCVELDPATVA
T5 sequence (P07766 23-126 limits assumed): as the sequence (P07766 23-126, chain 1 of 2) above
T2 sequence (P07766 23-207): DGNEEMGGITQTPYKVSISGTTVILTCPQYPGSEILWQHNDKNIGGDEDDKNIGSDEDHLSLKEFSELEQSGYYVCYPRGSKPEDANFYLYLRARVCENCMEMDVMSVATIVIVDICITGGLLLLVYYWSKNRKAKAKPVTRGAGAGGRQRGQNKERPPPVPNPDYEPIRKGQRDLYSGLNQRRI
T1 sequence (P56856 whole entry): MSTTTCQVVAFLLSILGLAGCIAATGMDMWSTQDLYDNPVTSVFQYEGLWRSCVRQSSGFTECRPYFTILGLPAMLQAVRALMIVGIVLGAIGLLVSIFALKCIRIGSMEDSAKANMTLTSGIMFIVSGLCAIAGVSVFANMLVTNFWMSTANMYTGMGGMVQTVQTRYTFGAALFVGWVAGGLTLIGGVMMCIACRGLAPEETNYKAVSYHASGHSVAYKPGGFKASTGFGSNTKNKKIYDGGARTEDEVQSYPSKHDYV
Chain of CLDN18.2 of SNU620 cells (methionine to leucine at amino acid 149) (P56856 other isoform, or with tags, fused parts or gaps limits assumed): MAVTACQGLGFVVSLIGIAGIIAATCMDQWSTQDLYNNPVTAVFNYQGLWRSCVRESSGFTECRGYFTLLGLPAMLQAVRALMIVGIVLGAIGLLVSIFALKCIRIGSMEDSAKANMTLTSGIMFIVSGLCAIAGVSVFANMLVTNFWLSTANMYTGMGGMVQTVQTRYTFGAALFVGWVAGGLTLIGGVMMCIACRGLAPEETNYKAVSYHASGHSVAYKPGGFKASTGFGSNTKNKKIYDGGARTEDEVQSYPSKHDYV

B1: PR005520 (bispecific antibody)
chain 1: EVQLVESGGGLVQPGGSLRLSCAASGFTFSSYWMHWVRQVPGKGLVWVSRINSDGSRTIYADSVKGRFTISRDNAKNTLYLQMNSLRAEDTAVYYCARGEDHDILTGYPIRGQGTTVTVSSGGGGSGGGGSGGGGSEVQLVESGGGLVQPGGSLRLSCAASGFTFSSYWMHWVRQVPGKGLVWVSRINSDGSRTIYADSVKGRFTISRDNAKNTLYLQMNSLRAEDTAVYYCARGEDHDILTGYPIRGQGTTVTVSSASEPKSSDKTHTCPPCPAPEAAGGPSVFLFPPKPKDTLMISRTPEVTCVVVDVSHEDPEVKFNWYVDGVEVHNAKTKPREEQYNSTYRVVSVLTVLHQDWLNGKEYKCKVSNKALPAPIEKTISKAKGQPREPQVCTLPPSREEMTKNQVSLSCAVKGFYPSDIAVEWESNGQPENNYKTTPPVLDSDGSFFLVSKLTVDKSRWQQGNVFSCSVMHEALHNHYTQKSLSLSPGK
chain 2: not shown
light: QAVVTQEPSLTVSPGGTVTLTCRSSTGAVTTSNYANWVQQKPGQAPRGLIGGTNKRAPWTPARFSGSLLGDKAALTLLGAQPEDEAEYFCALWYSNLWVFGGGTKLTVLGQPKAAPSVTLFPPSSEELQANKATLVCLISDFYPGAVTVAWKADSSPVKAGVETTTPSKQSNNKYAASSYLSLTPEQWKSHRSYSCQVTHEGSTVEKTVAPTECS
notes: PR001848 / PR004533; LALA
- binding result (human CLDN18.1): no binding
- binding result [1]: binds
- EC50 (human CLDN18.2 [2]): 13.9 nM
- TDCC, Titer EC50 (pM), NUGC4_D8 (human CLDN18.2 [3]): 22.4 pM

B2: PR007083 (bispecific antibody, human IgG1, lambda)
chain: EVQLVESGGGLVQPGGSLRLSCAASGFTFSSYWMHWVRQVPGKGLVWVCRISSDASRTIYADSVKGRFTCSRDNAKNTLYLQMNSLRAEDTAVYYCARGEDHDILTGYPIRGQGTTVTVSSGGGGSGGGGSGGGGSEVQLVESGGGLVQPGGSLRLSCAASGFTFSSYWMHWVRQVPGKGLVWVCRISSDASRTIYADSVKGRFTCSRDNAKNTLYLQMNSLRAEDTAVYYCARGEDHDILTGYPIRGQGTTVTVSSASEPKSSDKTHTCPPCPAPEAAGAPSVFLFPPKPKDTLMISRTPEVTCVVVDVSHEDPEVKFNWYVDGVEVHNAKTKPREEQYNSTYRVVSVLTVLHQDWLNGKEYKCKVSNKALPAPIEKTISKAKGQPREPQVCTLPPSREEMTKNQVSLSCAVKGFYPSDIAVEWESNGQPENNYKTTPPVLDSDGSFFLVSKLTVDKSRWQQGNVFSCSVMHEALHNHYTQKSLSLSPGK
heavy: EVQLVESGGGLVQPGGSLKLSCAASGFTFSTYAMNWVRQASGKGLEWVGRIRSKYNNYATYYADSVKDRFTISRDDSKNTAYLQMNSLKTEDTAVYYCTRHGNFGNSYVSWFAYWGQGTLVTVSSASTKGPSVFPLAPSSKSTSGGTAALGCLVKDYFPEPVTVSWNSGALTSGVHTFPAVLQSSGLYSLSSVVTVPSSSLGTQTYICNVNHKPSNTKVDKKVEPKSCDKTHTCPPCPAPEAAGAPSVFLFPPKPKDTLMISRTPEVTCVVVDVSHEDPEVKFNWYVDGVEVHNAKTKPREEQYNSTYRVVSVLTVLHQDWLNGKEYKCKVSNKALPAPIEKTISKAKGQPREPQVYTLPPCREEMTKNQVSLWCLVKGFYPSDIAVEWESNGQPENNYKTTPPVLDSDGSFFLYSKLTVDKSRWQQGNVFSCSVMHEALHNHYTQKSLSLSPGK
light: QAVVTQEPSLTVSPGGTVTLTCRSSTGAVTTSNYANWVQQKPGQAPRGLIGGTNKRAPWTPARFSGSLLGDKAALTLLGAQPEDEAEYFCALWYSNLWVFGGGTKLTVLGQPKAAPSVTLFPPSSEELQANKATLVCLISDFYPGAVTVAWKADSSPVKAGVETTTPSKQSNNKYAASSYLSLTPEQWKSHRSYSCQVTHEGSTVEKTVAPTECS
notes: structure 1; CD3 Fab from PR003886; AAA
- EC50 (human CLDN18.2 [4]): 9.6 nM
- binding result [5]: binds

B3: PR005401 (bispecific antibody, human IgG1, lambda, L234A L235A)
chain: EVQLVESGGGLVQPGGSLRLSCAASGFTFSSYWMHWVRQVPGKGLVWVSRIDSRGSRTIYADSVKGRFTISRDNAKNTLYLQMNSLRAEDTAVYYCARGEDHDILTGYPIRGQGTTVTVSSGGGGSGGGGSGGGGSEVQLVESGGGLVQPGGSLRLSCAASGFTFSSYWMHWVRQVPGKGLVWVSRIDSRGSRTIYADSVKGRFTISRDNAKNTLYLQMNSLRAEDTAVYYCARGEDHDILTGYPIRGQGTTVTVSSASEPKSSDKTHTCPPCPAPEAAGGPSVFLFPPKPKDTLMISRTPEVTCVVVDVSHEDPEVKFNWYVDGVEVHNAKTKPREEQYNSTYRVVSVLTVLHQDWLNGKEYKCKVSNKALPAPIEKTISKAKGQPREPQVCTLPPSREEMTKNQVSLSCAVKGFYPSDIAVEWESNGQPENNYKTTPPVLDSDGSFFLVSKLTVDKSRWQQGNVFSCSVMHEALHNHYTQKSLSLSPGK
heavy: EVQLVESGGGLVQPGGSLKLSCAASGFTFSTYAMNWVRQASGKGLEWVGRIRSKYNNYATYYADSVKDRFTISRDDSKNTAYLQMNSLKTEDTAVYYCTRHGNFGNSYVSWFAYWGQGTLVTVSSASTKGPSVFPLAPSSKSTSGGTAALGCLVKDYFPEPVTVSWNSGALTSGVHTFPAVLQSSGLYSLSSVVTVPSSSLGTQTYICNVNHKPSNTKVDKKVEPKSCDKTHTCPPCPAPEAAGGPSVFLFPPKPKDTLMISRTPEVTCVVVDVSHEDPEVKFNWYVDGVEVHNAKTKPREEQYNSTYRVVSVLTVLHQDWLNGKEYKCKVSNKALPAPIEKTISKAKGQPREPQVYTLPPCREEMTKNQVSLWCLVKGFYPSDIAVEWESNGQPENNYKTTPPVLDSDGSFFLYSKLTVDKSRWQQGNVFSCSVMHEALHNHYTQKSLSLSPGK
light: QAVVTQEPSLTVSPGGTVTLTCRSSTGAVTTSNYANWVQQKPGQAPRGLIGGTNKRAPWTPARFSGSLLGDKAALTLLGAQPEDEAEYFCALWYSNLWVFGGGTKLTVLGQPKAAPSVTLFPPSSEELQANKATLVCLISDFYPGAVTVAWKADSSPVKAGVETTTPSKQSNNKYAASSYLSLTPEQWKSHRSYSCQVTHEGSTVEKTVAPTECS
notes: structure 1; CD3 Fab from PR003886, CLDN18.2 VH from PR007244; LALA
- EC50 (human CLDN18.2 [4]): 17.5 nM
- binding result [1]: binds
- EC50 (human CLDN18.2 [2]): 13.1 nM
- TDCC, Titer EC50 (pM), NUGC4_D8 (human CLDN18.2 [3]): 6.4 pM
- TDCC, Titer EC50 (pM), SNU620 [6]: 25.8 pM

B4: PR004931 (bispecific antibody)
chain 1: QVQLVQSGAEVKKPGASVKVSCKASGYTFTEFGMNWVRQAPGQGLEWMGWINTKTGEATYVEEFKGRVTFTTDTSTSTAYMELRSLRSDDTAVYYCARWDFAYYVEAMDYWGQGTTVTVSSASTKGPSVFPLAPSSKSTSGGTAALGCLVKDYFPEPVTVSWNSGALTSGVHTFPAVLQSSGLYSLSSVVTVPSSSLGTQTYICNVNHKPSNTKVDKKVEPKSCDGGGGSGGGGSEVQLLESGGGLVQPGGSLRLSCAASGFTFSTYAMNWVRQAPGKGLEWVSRIRSKYNNYATYYADSVKGRFTISRDDSKNTLYLQMNSLRAEDTAVYYCVRHGNFGNSYVSWFAYWGQGTLVTVSSASVAAPSVFIFPPSDEQLKSGTASVVCLLNNFYPREAKVQWKVDNALQSGNSQESVTEQDSKDSTYSLSSTLTLSKADYEKHKVYACEVTHQGLSSPVTKSFNRGECDKTHTCPPCPAPEAAGGPSVFLFPPKPKDTLMISRTPEVTCVVVDVSHEDPEVKFNWYVDGVEVHNAKTKPREEQYNSTYRVVSVLTVLHQDWLNGKEYKCKVSNKALGAPIEKTISKAKGQPREPQVYTLPPCREEMTKNQVSLWCLVKGFYPSDIAVEWESNGQPENNYKTTPPVLDSDGSFFLYSKLTVDKSRWQQGNVFSCSVMHEALHNHYTQKSLSLSPGK
chain 2: QAVVTQEPSLTVSPGGTVTLTCGSSTGAVTTSNYANWVQEKPGQAFRGLIGGTNKRAPGTPARFSGSLLGGKAALTLSGAQPEDEAEYYCALWYSNLWVFGGGTKLTVLSSASTKGPSVFPLAPSSKSTSGGTAALGCLVKDYFPEPVTVSWNSGALTSGVHTFPAVLQSSGLYSLSSVVTVPSSSLGTQTYICNVNHKESNTKVDKKVEPKSC
chain 3: QVQLVQSGAEVKKPGASVKVSCKASGYTFTEFGMNWVRQAPGQGLEWMGWINTKTGEATYVEEFKGRVTFTTDTSTSTAYMELRSLRSDDTAVYYCARWDFAYYVEAMDYWGQGTTVTVSSASTKGPSVFPLAPSSKSTSGGTAALGCLVKDYFPEPVTVSWNSGALTSGVHTFPAVLQSSGLYSLSSVVTVPSSSLGTQTYICNVNHKPSNTKVDKKVEPKSCDKTHTCPPCPAPEAAGGPSVFLFPPKPKDTLMISRTPEVTCVVVDVSHEDPEVKFNWYVDGVEVHNAKTKPREEQYNSTYRVVSVLTVLHQDWLNGKEYKCKVSNKALGAPIEKTISKAKGQPREPQVCTLPPSREEMTKNQVSLSCAVKGFYPSDIAVEWESNGQPENNYKTTPPVLDSDGSFFLVSKLTVDKSRWQQGNVFSCSVMHEALHNHYTQKSLSLSPGK
chain 4: DIQMTQSPSSLSASVGDRVTITCKASAAVGTYVAWYQQKPGKAPKLLIYSASYRKRGVPSRFSGSGSGTDFTLTISSLQPEDFATYYCHQYYTYPLFTFGQGTKLEIKRTVAAPSVFIFPPSDEQLKSGTASVVCLLNNEYPREAKVQWKVDNALQSGNSQESVTEQDSKDSTYSLSSTLTLSKADYEKHKVYACEVTHQGLSSPVTKSFNRGEC
notes: also called anti-CEA×CD3 bispecific antibody (WO2017055389A1, Roche)
- Kd [7]: 33.7 nM
- koff [7]: 0.00137 s⁻¹
- kon [7]: 40700 M⁻¹ s⁻¹
- Kd [8]: 30.8 nM
- koff [8]: 0.00225 s⁻¹
- kon [8]: 73100 M⁻¹ s⁻¹
- binding result [9]: no binding (tested: 120-7.5 nM)
